Data published in paper PMC3401101.
Blank lines part the entries; values can stand above or below the molecule they belong to.

Legend:
[1] = biological target: T1, DNA topoisomerase IIIα (UniProt Q13472)
T1 sequence: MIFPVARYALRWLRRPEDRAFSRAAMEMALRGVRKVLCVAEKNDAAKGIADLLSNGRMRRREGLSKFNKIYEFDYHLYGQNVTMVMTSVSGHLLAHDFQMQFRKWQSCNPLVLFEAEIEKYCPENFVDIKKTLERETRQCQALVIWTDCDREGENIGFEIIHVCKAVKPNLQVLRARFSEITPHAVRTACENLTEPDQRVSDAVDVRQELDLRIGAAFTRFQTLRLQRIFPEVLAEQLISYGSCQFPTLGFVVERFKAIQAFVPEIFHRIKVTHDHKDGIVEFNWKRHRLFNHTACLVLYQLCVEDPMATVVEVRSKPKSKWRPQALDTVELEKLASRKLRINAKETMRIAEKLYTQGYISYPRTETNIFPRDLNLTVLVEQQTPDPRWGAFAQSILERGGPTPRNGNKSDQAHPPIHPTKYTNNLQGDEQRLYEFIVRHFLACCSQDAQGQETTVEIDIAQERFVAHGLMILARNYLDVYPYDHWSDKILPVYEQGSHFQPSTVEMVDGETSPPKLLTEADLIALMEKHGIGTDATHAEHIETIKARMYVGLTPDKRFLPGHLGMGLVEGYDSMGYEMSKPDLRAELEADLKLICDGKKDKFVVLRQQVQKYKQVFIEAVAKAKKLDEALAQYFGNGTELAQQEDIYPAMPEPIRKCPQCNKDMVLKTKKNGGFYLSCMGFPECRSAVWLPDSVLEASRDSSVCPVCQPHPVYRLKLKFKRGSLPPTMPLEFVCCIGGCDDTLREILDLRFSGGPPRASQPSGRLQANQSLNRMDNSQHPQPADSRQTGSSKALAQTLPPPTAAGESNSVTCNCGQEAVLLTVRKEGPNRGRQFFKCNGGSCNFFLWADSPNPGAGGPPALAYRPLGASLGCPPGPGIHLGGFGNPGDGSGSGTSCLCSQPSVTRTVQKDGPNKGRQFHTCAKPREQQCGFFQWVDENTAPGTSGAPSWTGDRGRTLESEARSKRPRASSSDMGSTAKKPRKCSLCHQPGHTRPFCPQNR

[2] = biological target: T1, DNA topoisomerase IIIα; remark: listed apart in the source

- TopoIIIα decatenase activity with BLM (33-66 nM) in the presence of RPA (100 nM), against TopoIIIα alone [1]: 1.5 fold
Molecule: BLM (from UniProt P54132 1-1417) (enzyme)

- TopoIIIα-mediated decatenation of single-stranded catenane with both BLM (17 nM) and RMI1 (75-150 nM) in the presence of RPA (100 nM), against TopoIIIα alone [2]: 30 fold
B1: RMI1 (natural protein)
chain: MNVTSIALRAETWLLAAWHVKVPPMWLEACINWIQEENNNVNLSQAQMNKQVFEQWLLTDLRDLEHPLLPDGILEIPKGELNGFYALQINSLVDVSQPAYSQIQKLRGKNTTNDLVTAEAQVTPKPWEAKPSRMLMLQLTDGIVQIQGMEYQPIPILHSDLPPGTKILIYGNISFRLGVLLLKPENVKVLGGEVDALLEEYAQEKVLARLIGEPDLVVSVIPNNSNENIPRVTDVLDPALGPSDEELLASLDENDELTANNDTSSERCFTTGSSSNTIPTRQSSFEPEFVISPRPKEEPSNLSIHVMDGELDDFSLEEALLLEETVQKEQMETKELQPLTFNRNADRSIERFSHNPNTTNNFSLTCKNGNNNWSEKNVSEQMTNEDKSFGCPSVRDQNRSIFSVHCNVPLAHDFTNKEKNLETDNKIKQTSSSDSHSLNNKILNREVVNYVQKRNSQISNENDCNLQSCSLRSSENSINLSIAMDLYSPPFVYLSVLMASKPKEVTTVKVKAFIVTLTGNLSSSGGIWSITAKVSDGTAYLDVDFVDEILTSLIGFSVPEMKQSKKDPLQYQKFLEGLQKCQRDLIDLCCLMTISFNPSLSKAMVLALQDVNMEHLENLKKRLNK
